{"source": "patent US20180186871A1", "about": "(SINGAPORE HEALTH SERVICES PTE, published 2018); further: test concentration or dose not given here"}
{"target": "T1, human IL-11 (human, UniProt P20809 22-199)", "T1 sequence (looked up)": "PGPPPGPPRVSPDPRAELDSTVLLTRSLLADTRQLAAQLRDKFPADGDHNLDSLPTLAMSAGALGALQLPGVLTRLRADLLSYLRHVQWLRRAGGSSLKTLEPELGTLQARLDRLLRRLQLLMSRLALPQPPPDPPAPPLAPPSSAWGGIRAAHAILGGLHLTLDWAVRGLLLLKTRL", "experiment": "cell-based or functional assay", "units": {"MMP2 production (ng/ml), TGFB1-stimulated human atrial fibroblasts, Experiment 1 (NEG 42.7, POS 70.2)": "ng/mL", "MMP2 production (ng/ml), TGFB1-stimulated human atrial fibroblasts, Experiment 2 (NEG 36.2, POS 62.3)": "ng/mL"}}
{"binder": "YU100-E11 (scFv) scFv: QVQLVESGGGVVQPGRSLRLSCAASGFTFSSYGMHWVRQAPGKGLEWVAVISYDGSNKYYADSVKGRFTISRDNSKNTLYLQMNSLRAEDTAVYYCARIMGYDYGDYDVVDYWGQGTLVTVSSGSASAPKLEEGEFSEARVQSALTQPRSVSGSPGQSVTISCTGTSSDVGGYNYVSWYQQHPGKAPKLMIYDVSKRPSGVPDRFSGSKSGNTASLTISGLQAEDEADYYCCSYAGSYTWVFGGGTKLTVL", "MMP2 production (ng/ml), TGFB1-stimulated human atrial fibroblasts, Experiment 1 (NEG 42.7, POS 70.2)": 49.1, "MMP2 production (ng/ml), TGFB1-stimulated human atrial fibroblasts, Experiment 2 (NEG 36.2, POS 62.3)": 41.9}
{"binder": "YU100-E08 (scFv) scFv: QVQLVQSGGGVVQPGRSLRLSCAASGFTFSSYAMHWVRQAPGKGLEWVAVISYDGSNKYYADSVKGRFTISRDNSKNTLYLQMNSLRAEDTAVYYCARIMGYDYGDYDVVDYWGQGTLVTVSSGSASAPKLEEGEFSEARVQSALTQPRSVSGSPGQSVTISCTGTSSDVGGYNYVSWYQQHPGKAPKLMIYDVSRRPSGVPDRFSGSKSGNTASLTISGLQAEDEADYYCCSYAGNYTWMFGGGTKLTVL", "MMP2 production (ng/ml), TGFB1-stimulated human atrial fibroblasts, Experiment 1 (NEG 42.7, POS 70.2)": 48.2, "MMP2 production (ng/ml), TGFB1-stimulated human atrial fibroblasts, Experiment 2 (NEG 36.2, POS 62.3)": 59.7}
{"binder": "YU100-F07 (scFv) scFv: QVQLVESGGGVVQPGRSLRLSCAASGFTFSSYAMHWVRQAPGKGLEWVAVISYDGSNKYYADSVKGRFTISRDNSKNTLYLQMNSLRAEDTAVYYCARIMGYDYGDYDVVDYWGQGTLVTVSSGSASAPKLEEGEFSEARVQSALTQPRSVSVSPGQSVTISCTGTSSDVGGYEYVSWYQQHPGKAPKLMIYDVTKRPSGVPDRFSGSKSGNTASLTISGLQGEDAADYYCCSYAGSYTWVFGGGTTVTVL", "MMP2 production (ng/ml), TGFB1-stimulated human atrial fibroblasts, Experiment 1 (NEG 42.7, POS 70.2)": 53.1, "MMP2 production (ng/ml), TGFB1-stimulated human atrial fibroblasts, Experiment 2 (NEG 36.2, POS 62.3)": 46.6}
{"binder": "YU100-H02 (scFv) scFv: QVQLQQSGGGVVQPGRSLRLSCAASGFTFSSYGMHWVRQAPGKGLEWVAVISYDGSNKYYADSVKGRFTISRDNSKNTLYLQMNSLRAEDTAVYYCARIMGYDYGDYDVVDYWGQGTLVTVSSGSASAPKLEEGEFSEARVQSALTQPRSVSRSPGQSVTISCTGTSSDVGTYNYVSWYQQHPGKAPKLMIYDVSKRPSGVPDRFSGSKSGNTASLTISGLQAEDEADYYCCSYAGFYTWVFGGGTKLTVL", "MMP2 production (ng/ml), TGFB1-stimulated human atrial fibroblasts, Experiment 1 (NEG 42.7, POS 70.2)": 57.5, "MMP2 production (ng/ml), TGFB1-stimulated human atrial fibroblasts, Experiment 2 (NEG 36.2, POS 62.3)": 51.3}
{"binder": "YU100-E09 (scFv) scFv: QVQLVESGGGVVQPGRSLRLSCAASGFTFSSYAMHWVRQAPGKGLEWVAVISYDGSNKYYADSVKGRFTISRDNSKNTLYLQMNSLRAEDTAVYYCARIMGYDYGDYDVVDYWGQGTLVTVSSGSASAPKLEEGEFSEARVQSALTQPRSVSGSPGQSVTISCTGTSSDVGDYDYVSWYQQHPGKAPKLIIYDVTKRPSGIPDRFSGSKSGNTASLTISGLQAEDEADYYCCSYAGSYTWVFGRGTKLTVL", "MMP2 production (ng/ml), TGFB1-stimulated human atrial fibroblasts, Experiment 1 (NEG 42.7, POS 70.2)": 51.7, "MMP2 production (ng/ml), TGFB1-stimulated human atrial fibroblasts, Experiment 2 (NEG 36.2, POS 62.3)": 44.4}
{"binder": "YU100-G09 (scFv) scFv: EVQLVESGGGVVQPGRSLRLSCAASGFTFSSYGMHWVRQAPGKGLEWVAVISYDGSNKYYADSVKGRFTISRDNSKNTLYLQMNSLRAEDTAVYYCAKIGATDPLDYWGQGTLVTVSSGSASAPKLEEGEFSEARVQSALTQPRSVSGSPGQSVTISCTGTISDVGGYNYVSWYQQHPGKAPKLMIYDVTKRPSGVPDRFSGSKSGNTASLTISGLQAEDEAGYYCSSYAGSYTWVFGGGTKLTVL", "MMP2 production (ng/ml), TGFB1-stimulated human atrial fibroblasts, Experiment 1 (NEG 42.7, POS 70.2)": 59.9, "MMP2 production (ng/ml), TGFB1-stimulated human atrial fibroblasts, Experiment 2 (NEG 36.2, POS 62.3)": 47.5}
{"binder": "YU112-B06 (scFv, not shown: a dimerising Fc or GST) scFv: QVQLVESGGGVVQPGRSLRLSCAASGFTFSSYGMHWVRQAPGKGLEWVAVISYDGSNKYYADSVKGRFTISRDNSKNTLYLQMNSLRAEDTAVYYCAKIGATDPLDYWGQGTLVTVSSGSASAPKLEEGEFSEARVQSALTQPASVSGSPGQSITISCTGTSSDVGGYNYVSWYQQHPGKAPKLMIYDVSNRPSGVSNRFSGSKSGNTASLTIFGLQAEDEADYYCSSYTSSSSWVFGGGTKLTVL", "MMP2 production (ng/ml), TGFB1-stimulated human atrial fibroblasts, Experiment 1 (NEG 42.7, POS 70.2)": 49.7, "MMP2 production (ng/ml), TGFB1-stimulated human atrial fibroblasts, Experiment 2 (NEG 36.2, POS 62.3)": 43.9}
{"binder": "YU100-H05 (scFv) scFv: QVQLVESGGGVVQPGRSLRLSCAASGFTFSSYGMHWVRQAPGKGLEWVAVISYDGSNKYYADSVKGRFTISRDNSKNTLYLQMNSLRAEDTAVYYCAKIGATDPLDYWGQGTLVTVSSGSASAPKLEEGEFSEARVQAVLTQPRSVSGSPGQSITISCTGTGSNVGGYNYVSWYQQHPGQAPKLMIYDVSKRPSGVPDRFSGSKSGNTASLTISGLQAEDEADYYCCSYAGTYTWVFGGGTKLTVL", "MMP2 production (ng/ml), TGFB1-stimulated human atrial fibroblasts, Experiment 1 (NEG 42.7, POS 70.2)": 57.1, "MMP2 production (ng/ml), TGFB1-stimulated human atrial fibroblasts, Experiment 2 (NEG 36.2, POS 62.3)": 47.8}
{"binder": "YU112-D08 (scFv) scFv: QVQLVESGGGVVQPGRSLRLSCAASGFTFSSYGMHWVRQAPGKGLEWVAVISYDGSNKYYADSVEGRFTISRDNSKNTLYLQMNSLRAEDTAVYYCAKIGATDPLDYWGQGTLVTVSSGSASAPKLEEGEFSEARVQSALTQPRSVSGSPGQSVTISCTGTISDVGGYNYVSWYQQHPGKAPKLMIYDVTKRPSGVPDRFSGSKSGNTASLTISGLQAEDEAGYYCSSYAGSYTWVFGGGTELTVL", "MMP2 production (ng/ml), TGFB1-stimulated human atrial fibroblasts, Experiment 1 (NEG 42.7, POS 70.2)": 50.3, "MMP2 production (ng/ml), TGFB1-stimulated human atrial fibroblasts, Experiment 2 (NEG 36.2, POS 62.3)": 42.5}
{"binder": "YU112-A07 (scFv, not shown: a dimerising Fc or GST) scFv: QVQLVESGGGVVQPGRSLRLSCAASGFTFSSYGMHWVRQAPGKGLEWVAVISYDGSNKYYTDSVKGRFTISRDNSKNTLYLQMNSLRAEDTAVYYCAKIGATDPLDYWGQGTLVTVSSGSASAPKLEEGEFSEARVQSALTQPRSVSGSPGQSVTISCTGTISDVGGYNYVSWYQQHPGKAPKLMIYDVTKRPSGVPDRFSGSKSGNTASLTISGLQAEDEAGYYCSSYAGSYTWVFGGGTELTVL", "MMP2 production (ng/ml), TGFB1-stimulated human atrial fibroblasts, Experiment 1 (NEG 42.7, POS 70.2)": 50.7, "MMP2 production (ng/ml), TGFB1-stimulated human atrial fibroblasts, Experiment 2 (NEG 36.2, POS 62.3)": 45}
{"binder": "YU112-G06 (scFv) scFv: QVQLQESGGGVVQPGRSLRLSCAASGFTFSSYGMHWVRQAPGKGLEWVAVISYDGSNKYYADSVKGRFTISRDNSKNTLYLQMNSLRAEDTAVYYCAKIGATDPLDYWGQGTLVTVSSGSASAPKLEEGEFSEARVQSALTQPRSVSGSPGQSVTISCTGTISDVGGYNYVSWYQQHPGKAPKLMIYDVTKRRSGVPDRFSGSKSGNTASLTISGLQAEDEAGYYCSSYAGGYTWVFGGGTELTVL", "MMP2 production (ng/ml), TGFB1-stimulated human atrial fibroblasts, Experiment 1 (NEG 42.7, POS 70.2)": 55, "MMP2 production (ng/ml), TGFB1-stimulated human atrial fibroblasts, Experiment 2 (NEG 36.2, POS 62.3)": 47.8}
{"binder": "YU100-H11 (scFv, not shown: a dimerising Fc or GST) scFv: QVQLVQSGGGVVQPGRSLRLSCAASGFTFSSYGMHWVRQAPGKGLEWVAVISYDGSNKYYADSVKGRFTISRDNSKNTLYLQMNSLRAEDTAVYYCAKIGATDPLDYWGQGTLVTVSSGSASAPKLEEGEFSEARVQSALTQPASVSGSPGQSITISCTGTSSDVGGYNYVSWYQQHPGKAPKLMIYDVSNRPSGVSNRFSGSKSGNTASLTISGLQAEDEADYYCCSYAGSYTWVFGGGTKLTVL", "MMP2 production (ng/ml), TGFB1-stimulated human atrial fibroblasts, Experiment 1 (NEG 42.7, POS 70.2)": 53.7, "MMP2 production (ng/ml), TGFB1-stimulated human atrial fibroblasts, Experiment 2 (NEG 36.2, POS 62.3)": 45.5}
